Data on three substances can be found in paper PMC8710476.

Experiment [1] has as its target CB6 (class I).
In experiment [2] the target is REGN10933 (class I).
Experiment [3] has as its target BD368-2 (class II).

Turning to “SARS-CoV-2 full-length spike, WT D614G, expressed on the cell surface (from UniProt P0DTC2) Beta (B.1.351)”, the ratio to parent in experiment [1] is -76.3 fold; in experiment [2], -3.2 fold; in experiment [3], -569 fold.

Take “SARS-CoV-2 full-length spike, WT D614G, expressed on the cell surface (from UniProt P0DTC2) Alpha (B.1.1.7)”: the ratio to parent in experiment [1] was determined as 2.7 fold; in experiment [3], 1.3 fold.

Regarding “SARS-CoV-2 full-length spike, WT D614G, expressed on the cell surface (from UniProt P0DTC2) Gamma (P.1)”, the ratio to parent in experiment [1] was -266 fold.
